From PMC8254039, “Oxalate decarboxylase uses electron hole hopping for catalysis” (The Journal of Biological Chemistry, 2021) come the findings set out here.

Substrate in the data set “purified protein”: O=C(O)C(=O)O
Kind of data set: purified protein. The conditions noted are these: pH 4.2, 25 °C.

Data set [1] deals with the molecule itself. Kind of data set: native gel or EMSA; native PAGE of the mutant proteins after purification, compared with WT (Fig. S3); self-assembly of the subunits.
[2] abbreviates: 50 mM poly buffer, 500 mM NaCl, Triton X-100, o-phenylenediamine, 1.93 Mn per subunit.
Setting [3] is: same buffer, 0.58 Mn per subunit.
[4] abbreviates: same buffer, 0.33 Mn per subunit.
[5] abbreviates: same buffer, 0.55 Mn per subunit.
[6] abbreviates: same buffer, 1.34 Mn per subunit.
[7] abbreviates: same buffer, 1.89 Mn per subunit.

B1: oxalate decarboxylase (OxDC) of Bacillus subtilis, wild type, His6-tagged (enzyme)
chain: MKKQNDIPQPIRGDKGATVKIPRNIERDRQNPDMLVPPETDHGTVSNMKFSFSDTHNRLEKGGYAREVTVRELPISENLASVNMRLKPGAIRELHWHKEAEWAYMIYGSARVTIVDEKGRSFIDDVGEGDLWYFPSGLPHSIQALEEGAEFLLVFDDGSFSENSTFQLTDWLAHTPKEVIAANFGVTKEEISNLPGKEKYIFENQLPGSLKDDIVEGPNGEVPYPFTYRLLEQEPIESEGGKVYIADSTNFKVSKTIASALVTVEPGAMRELHWHPNTHEWQYYISGKARMTVFASDGHARTFNYQAGDVGYVPFAMGHYVENIGDEPLVFLEIFKDDHYADVSLNQWLAMLPETFVQAHLDLGKDFTDVLSKEKHPVVKKKCSK
notes: oxalate decarboxylase (OxDC), Bacillus subtilis, YvrK gene; Vector printed as PET32A with the YvrK gene; also called WT OxDC; WT; source: E. coli (overexpressed), purified (nickel-NTA, HiTrap Q anion exchange, Superdex 200 gel filtration)
For B1, in the data set “purified protein” (setting [2]), the Km was determined as 33.3 ± 0.4 mM and the turnover number (kcat) was 89.2 ± 1.4 s⁻¹. In data set [1], the binding result is “binds”.

B2: oxalate decarboxylase (OxDC) of Bacillus subtilis, W96F/W274F double mutant, His6-tagged (enzyme)
chain: MKKQNDIPQPIRGDKGATVKIPRNIERDRQNPDMLVPPETDHGTVSNMKFSFSDTHNRLEKGGYAREVTVRELPISENLASVNMRLKPGAIRELHFHKEAEWAYMIYGSARVTIVDEKGRSFIDDVGEGDLWYFPSGLPHSIQALEEGAEFLLVFDDGSFSENSTFQLTDWLAHTPKEVIAANFGVTKEEISNLPGKEKYIFENQLPGSLKDDIVEGPNGEVPYPFTYRLLEQEPIESEGGKVYIADSTNFKVSKTIASALVTVEPGAMRELHFHPNTHEWQYYISGKARMTVFASDGHARTFNYQAGDVGYVPFAMGHYVENIGDEPLVFLEIFKDDHYADVSLNQWLAMLPETFVQAHLDLGKDFTDVLSKEKHPVVKKKCSK
notes: oxalate decarboxylase (OxDC), Bacillus subtilis, YvrK gene, with W96F and W274F; 385 residues per subunit; Said to assemble like the wild type on native PAGE; no crystal structure; source: E. coli (overexpressed), purified (nickel-NTA, HiTrap Q anion exchange, Superdex 200 gel filtration)
With B2, the binding result in data set [1] is recorded as “binds”.

B3: oxalate decarboxylase (OxDC) of Bacillus subtilis, W96Y/W274Y double mutant, His6-tagged (enzyme)
chain: MKKQNDIPQPIRGDKGATVKIPRNIERDRQNPDMLVPPETDHGTVSNMKFSFSDTHNRLEKGGYAREVTVRELPISENLASVNMRLKPGAIRELHYHKEAEWAYMIYGSARVTIVDEKGRSFIDDVGEGDLWYFPSGLPHSIQALEEGAEFLLVFDDGSFSENSTFQLTDWLAHTPKEVIAANFGVTKEEISNLPGKEKYIFENQLPGSLKDDIVEGPNGEVPYPFTYRLLEQEPIESEGGKVYIADSTNFKVSKTIASALVTVEPGAMRELHYHPNTHEWQYYISGKARMTVFASDGHARTFNYQAGDVGYVPFAMGHYVENIGDEPLVFLEIFKDDHYADVSLNQWLAMLPETFVQAHLDLGKDFTDVLSKEKHPVVKKKCSK
notes: oxalate decarboxylase (OxDC), Bacillus subtilis, YvrK gene, with W96Y and W274Y; 385 residues per subunit; Said to assemble like the wild type on native PAGE; no crystal structure; source: E. coli (overexpressed), purified (nickel-NTA, HiTrap Q anion exchange, Superdex 200 gel filtration)
Regarding B3, the binding result in data set [1] is “binds”.

B4: oxalate decarboxylase (OxDC) of Bacillus subtilis, W274F mutant, His6-tagged (enzyme)
chain: MKKQNDIPQPIRGDKGATVKIPRNIERDRQNPDMLVPPETDHGTVSNMKFSFSDTHNRLEKGGYAREVTVRELPISENLASVNMRLKPGAIRELHWHKEAEWAYMIYGSARVTIVDEKGRSFIDDVGEGDLWYFPSGLPHSIQALEEGAEFLLVFDDGSFSENSTFQLTDWLAHTPKEVIAANFGVTKEEISNLPGKEKYIFENQLPGSLKDDIVEGPNGEVPYPFTYRLLEQEPIESEGGKVYIADSTNFKVSKTIASALVTVEPGAMRELHFHPNTHEWQYYISGKARMTVFASDGHARTFNYQAGDVGYVPFAMGHYVENIGDEPLVFLEIFKDDHYADVSLNQWLAMLPETFVQAHLDLGKDFTDVLSKEKHPVVKKKCSK
notes: oxalate decarboxylase (OxDC), Bacillus subtilis, YvrK gene, with W274F; 385 residues per subunit; Said to assemble like the wild type on native PAGE; no crystal structure; source: E. coli (overexpressed), purified (nickel-NTA, HiTrap Q anion exchange, Superdex 200 gel filtration)
For the protein B4, in the data set “purified protein” (setting [3]), the Km came out at 6.7 ± 0.3 mM and the kcat was found to be 1.10 ± 0.03 s⁻¹. In addition, in data set [1], the binding result is on record as “binds”.

B5: oxalate decarboxylase (OxDC) (Bacillus subtilis subsp. subtilis str. 168; W274Y/W96Y) (protein)
chain: MKKQNDIPQPIRGDKGATVKIPRNIERDRQNPDMLVPPETDHGTVSNMKFSFSDTHNRLEKGGYAREVTVRELPISENLASVNMRLKPGAIRELHYHKEAEWAYMIYGSARVTIVDEKGRSFIDDVGEGDLWYFPSGLPHSIQALEEGAEFLLVFDDGSFSENSTFQLTDWLAHTPKEVIAANFGVTKEEISNLPGKEKYIFENQLPGSLKDDIVEGPNGEVPYPFTYRLLEQEPIESEGGKVYIADSTNFKVSKTIASALVTVEPGAMRELHYHPNTHEWQYYISGKARMTVFASDGHARTFNYQAGDVGYVPFAMGHYVENIGDEPLVFLEIFKDDHYADVSLNQWLAMLPETFVQAHLDLGKDFTDVLSKEKHPVVKKKCSK
As to B5, in “purified protein” (setting [4]), the Km is on record as 5.6 ± 0.5 mM and the kcat came out at 0.20 ± 0.01 s⁻¹.

B6: oxalate decarboxylase (OxDC) of Bacillus subtilis, W274Y mutant, His6-tagged (enzyme)
chain: MKKQNDIPQPIRGDKGATVKIPRNIERDRQNPDMLVPPETDHGTVSNMKFSFSDTHNRLEKGGYAREVTVRELPISENLASVNMRLKPGAIRELHWHKEAEWAYMIYGSARVTIVDEKGRSFIDDVGEGDLWYFPSGLPHSIQALEEGAEFLLVFDDGSFSENSTFQLTDWLAHTPKEVIAANFGVTKEEISNLPGKEKYIFENQLPGSLKDDIVEGPNGEVPYPFTYRLLEQEPIESEGGKVYIADSTNFKVSKTIASALVTVEPGAMRELHYHPNTHEWQYYISGKARMTVFASDGHARTFNYQAGDVGYVPFAMGHYVENIGDEPLVFLEIFKDDHYADVSLNQWLAMLPETFVQAHLDLGKDFTDVLSKEKHPVVKKKCSK
notes: oxalate decarboxylase (OxDC), Bacillus subtilis, YvrK gene, with W274Y; 385 residues per subunit; Said to assemble like the wild type on native PAGE; no crystal structure; source: E. coli (overexpressed), purified (nickel-NTA, HiTrap Q anion exchange, Superdex 200 gel filtration)
With B6, in data set [1], the binding result is given as “binds”.

B7: oxalate decarboxylase (OxDC) of Bacillus subtilis, W96F mutant, His6-tagged (enzyme)
chain: MKKQNDIPQPIRGDKGATVKIPRNIERDRQNPDMLVPPETDHGTVSNMKFSFSDTHNRLEKGGYAREVTVRELPISENLASVNMRLKPGAIRELHFHKEAEWAYMIYGSARVTIVDEKGRSFIDDVGEGDLWYFPSGLPHSIQALEEGAEFLLVFDDGSFSENSTFQLTDWLAHTPKEVIAANFGVTKEEISNLPGKEKYIFENQLPGSLKDDIVEGPNGEVPYPFTYRLLEQEPIESEGGKVYIADSTNFKVSKTIASALVTVEPGAMRELHWHPNTHEWQYYISGKARMTVFASDGHARTFNYQAGDVGYVPFAMGHYVENIGDEPLVFLEIFKDDHYADVSLNQWLAMLPETFVQAHLDLGKDFTDVLSKEKHPVVKKKCSK
notes: oxalate decarboxylase (OxDC), Bacillus subtilis, YvrK gene, with W96F; 385 residues per subunit; Quaternary assembly in the crystal agrees with that of the hexameric wild type (5VG3); source: E. coli (overexpressed), purified (nickel-NTA, HiTrap Q anion exchange, Superdex 200 gel filtration)
For B7, in “purified protein” (setting [5]), the Km is on record as 16.0 ± 1.5 mM and the kcat was found to be 1.00 ± 0.03 s⁻¹. In addition, the binding result in data set [1] was “binds”.

B8: oxalate decarboxylase (OxDC) (Bacillus subtilis subsp. subtilis str. 168; W96Y) (protein)
chain: MKKQNDIPQPIRGDKGATVKIPRNIERDRQNPDMLVPPETDHGTVSNMKFSFSDTHNRLEKGGYAREVTVRELPISENLASVNMRLKPGAIRELHYHKEAEWAYMIYGSARVTIVDEKGRSFIDDVGEGDLWYFPSGLPHSIQALEEGAEFLLVFDDGSFSENSTFQLTDWLAHTPKEVIAANFGVTKEEISNLPGKEKYIFENQLPGSLKDDIVEGPNGEVPYPFTYRLLEQEPIESEGGKVYIADSTNFKVSKTIASALVTVEPGAMRELHWHPNTHEWQYYISGKARMTVFASDGHARTFNYQAGDVGYVPFAMGHYVENIGDEPLVFLEIFKDDHYADVSLNQWLAMLPETFVQAHLDLGKDFTDVLSKEKHPVVKKKCSK
On to B8, for which, in the data set “purified protein” (setting [6]), the Km came out at 3.7 ± 0.9 mM and the kcat is 5.3 ± 0.9 s⁻¹.

B9: oxalate decarboxylase (OxDC) (Bacillus subtilis subsp. subtilis str. 168; W274Y) (protein)
chain: MKKQNDIPQPIRGDKGATVKIPRNIERDRQNPDMLVPPETDHGTVSNMKFSFSDTHNRLEKGGYAREVTVRELPISENLASVNMRLKPGAIRELHWHKEAEWAYMIYGSARVTIVDEKGRSFIDDVGEGDLWYFPSGLPHSIQALEEGAEFLLVFDDGSFSENSTFQLTDWLAHTPKEVIAANFGVTKEEISNLPGKEKYIFENQLPGSLKDDIVEGPNGEVPYPFTYRLLEQEPIESEGGKVYIADSTNFKVSKTIASALVTVEPGAMRELHYHPNTHEWQYYISGKARMTVFASDGHARTFNYQAGDVGYVPFAMGHYVENIGDEPLVFLEIFKDDHYADVSLNQWLAMLPETFVQAHLDLGKDFTDVLSKEKHPVVKKKCSK
With B9, in “purified protein” (setting [7]), the Km is 10.3 ± 3.1 mM and the kcat worked out at 23.9 ± 2.8 s⁻¹.

B10: oxalate decarboxylase (OxDC) of Bacillus subtilis, W96Y mutant, His6-tagged (enzyme)
chain: MKKQNDIPQPIRGDKGATVKIPRNIERDRQNPDMLVPPETDHGTVSNMKFSFSDTHNRLEKGGYAREVTVRELPISENLASVNMRLKPGAIRELHYHKEAEWAYMIYGSARVTIVDEKGRSFIDDVGEGDLWYFPSGLPHSIQALEEGAEFLLVFDDGSFSENSTFQLTDWLAHTPKEVIAANFGVTKEEISNLPGKEKYIFENQLPGSLKDDIVEGPNGEVPYPFTYRLLEQEPIESEGGKVYIADSTNFKVSKTIASALVTVEPGAMRELHWHPNTHEWQYYISGKARMTVFASDGHARTFNYQAGDVGYVPFAMGHYVENIGDEPLVFLEIFKDDHYADVSLNQWLAMLPETFVQAHLDLGKDFTDVLSKEKHPVVKKKCSK
notes: oxalate decarboxylase (OxDC), Bacillus subtilis, YvrK gene, with W96Y; 385 residues per subunit; Quaternary assembly in the crystal agrees with that of the hexameric wild type (5VG3); source: E. coli (overexpressed), purified (nickel-NTA, HiTrap Q anion exchange, Superdex 200 gel filtration)
Turning to B10, the binding result in data set [1] is given as “binds”.
